# Test results published in patent US20210238305A1 (REMEGEN, published 2021).
# Target: T1, human epidermal growth factor receptor 2 (Her2) (human, UniProt P04626 23-1255)
# T1 construct: whole, on cells; Endogenous Her2 in fixed patient tissue; also called ErbB2
# Test: IHC grade, no antigen retrieval, breast carcinoma sample 5 (18-07814-1)
binder,measurement,value
"RC48M antibody (antibody, mouse IgG1, kappa, V domains shown, also called R48M) VH: EVQLVQSGAEVKKPGATVKISCKVSGYTFTDYYIHWVQQAPGKGLEWMGRVNPDHGDSYYNQKFKDKATITADKSTDTAYMELSSLRSEDTAVYFCARNYLFDHWGQGTLVTVSS VL: DIQMTQSPSSVSASVGDRVTITCKASQDVGTAVAWYQQKPGKAPKLLIYWASIRHTGVPSRFSGSGSGTDFTLTISSLQPEDFATYYCHQFATYTFGGGTKVEIKR",binding result,binds
